T1: EsCas13d, nuclease-dead (Eubacterium siraeum, UniProt B0MS50, R295A;H300A;R849A;H854A)
T1 sequence: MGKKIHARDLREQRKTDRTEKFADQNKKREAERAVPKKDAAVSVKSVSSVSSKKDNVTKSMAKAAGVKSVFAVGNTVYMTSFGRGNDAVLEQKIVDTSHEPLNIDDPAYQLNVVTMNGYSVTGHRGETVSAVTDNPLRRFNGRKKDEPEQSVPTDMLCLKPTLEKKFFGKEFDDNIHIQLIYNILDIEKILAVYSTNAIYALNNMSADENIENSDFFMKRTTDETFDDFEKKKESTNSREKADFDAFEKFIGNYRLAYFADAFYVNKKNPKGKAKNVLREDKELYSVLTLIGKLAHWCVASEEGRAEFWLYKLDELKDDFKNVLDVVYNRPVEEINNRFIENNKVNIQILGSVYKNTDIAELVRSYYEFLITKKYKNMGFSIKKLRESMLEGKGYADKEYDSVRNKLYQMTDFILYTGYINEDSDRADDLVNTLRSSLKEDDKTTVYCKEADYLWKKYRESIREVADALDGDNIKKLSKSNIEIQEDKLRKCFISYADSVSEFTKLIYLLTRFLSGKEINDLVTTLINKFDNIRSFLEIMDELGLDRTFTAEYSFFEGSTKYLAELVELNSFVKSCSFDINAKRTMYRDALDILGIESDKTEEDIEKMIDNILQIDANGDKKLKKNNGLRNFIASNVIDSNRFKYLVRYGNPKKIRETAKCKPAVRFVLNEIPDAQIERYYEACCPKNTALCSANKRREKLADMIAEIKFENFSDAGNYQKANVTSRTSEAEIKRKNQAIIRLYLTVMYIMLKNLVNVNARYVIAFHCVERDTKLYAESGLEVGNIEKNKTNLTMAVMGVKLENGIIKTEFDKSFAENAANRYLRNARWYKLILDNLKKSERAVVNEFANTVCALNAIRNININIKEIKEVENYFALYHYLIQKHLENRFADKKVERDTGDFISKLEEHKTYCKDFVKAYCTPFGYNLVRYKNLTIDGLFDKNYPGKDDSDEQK

B1: target 3 insC 3' of 9,insA 3' of 6 (mixed)
RNA 1: CACCCGUGCAAAAUUGCAGGGGUCUAAAACGACCUGAAUAUUUCAGAUCAAA
RNA 2: GGGAAUGGAUCCACAUCUACGAAUUCGUUUUUGAUCUGAAAUACUUCAAGGUCUGCAGAUCGGAAGAGCACACGU
B2: target 3 insU 3' of 6,insA 3' of 6 (mixed)
RNA 1: CACCCGUGCAAAAUUGCAGGGGUCUAAAACGACCUGAAUAUUUCAGAUCAAA
RNA 2: GGGAAUGGAUCCACAUCUACGAAUUCGUUUUUGAUCUGAAAUAUUCUAAGGUCUGCAGAUCGGAAGAGCACACGU
B3: target 3 insU 3' of 9,insA 3' of 8 (mixed)
RNA 1: CACCCGUGCAAAAUUGCAGGGGUCUAAAACGACCUGAAUAUUUCAGAUCAAA
RNA 2: GGGAAUGGAUCCACAUCUACGAAUUCGUUUUUGAUCUGAAAUAUUAUCAGGUCUGCAGAUCGGAAGAGCACACGU
B4: target 3 insA 3' of 22,insU 3' of 19 (mixed)
RNA 1: CACCCGUGCAAAAUUGCAGGGGUCUAAAACGACCUGAAUAUUUCAGAUCAAA
RNA 2: GGGAAUGGAUCCACAUCUACGAAUUCGUUUAUUGUAUCUGAAAUAUUCAGGUCUGCAGAUCGGAAGAGCACACGU
B5: target 3 G3A,A18G (mixed)
RNA 1: CACCCGUGCAAAAUUGCAGGGGUCUAAAACGACCUGAAUAUUUCAGAUCAAA
RNA 2: GGGAAUGGAUCCACAUCUACGAAUUCGUUUUUGGUCUGAAAUAUUCAGAUCUGCAGAUCGGAAGAGCACACGU
B6: target 3 A11G,A12G (mixed)
RNA 1: CACCCGUGCAAAAUUGCAGGGGUCUAAAACGACCUGAAUAUUUCAGAUCAAA
RNA 2: GGGAAUGGAUCCACAUCUACGAAUUCGUUUUUGAUCUGAGGUAUUCAGGUCUGCAGAUCGGAAGAGCACACGU
B7: target 3 C1G,A9C (mixed)
RNA 1: CACCCGUGCAAAAUUGCAGGGGUCUAAAACGACCUGAAUAUUUCAGAUCAAA
RNA 2: GGGAAUGGAUCCACAUCUACGAAUUCGUUUUUGAUCUGAAAUCUUCAGGUGUGCAGAUCGGAAGAGCACACGU
B8: target 3 G3A,C6G (mixed)
RNA 1: CACCCGUGCAAAAUUGCAGGGGUCUAAAACGACCUGAAUAUUUCAGAUCAAA
RNA 2: GGGAAUGGAUCCACAUCUACGAAUUCGUUUUUGAUCUGAAAUAUUGAGAUCUGCAGAUCGGAAGAGCACACGU
B9: target 3 G19U (mixed)
RNA 1: CACCCGUGCAAAAUUGCAGGGGUCUAAAACGACCUGAAUAUUUCAGAUCAAA
RNA 2: GGGAAUGGAUCCACAUCUACGAAUUCGUUUUUUAUCUGAAAUAUUCAGGUCUGCAGAUCGGAAGAGCACACGU
B10: target 3 U2A,A11G (mixed)
RNA 1: CACCCGUGCAAAAUUGCAGGGGUCUAAAACGACCUGAAUAUUUCAGAUCAAA
RNA 2: GGGAAUGGAUCCACAUCUACGAAUUCGUUUUUGAUCUGAAGUAUUCAGGACUGCAGAUCGGAAGAGCACACGU
B11: target 3 insG 3' of 2,insA 3' of 2 (mixed)
RNA 1: CACCCGUGCAAAAUUGCAGGGGUCUAAAACGACCUGAAUAUUUCAGAUCAAA
RNA 2: GGGAAUGGAUCCACAUCUACGAAUUCGUUUUUGAUCUGAAAUAUUCAGGUGACUGCAGAUCGGAAGAGCACACGU
B12: target 3 A5C,C6A (mixed)
RNA 1: CACCCGUGCAAAAUUGCAGGGGUCUAAAACGACCUGAAUAUUUCAGAUCAAA
RNA 2: GGGAAUGGAUCCACAUCUACGAAUUCGUUUUUGAUCUGAAAUAUUACGGUCUGCAGAUCGGAAGAGCACACGU
B13: target 3 insC 3' of 11,insA 3' of 2 (mixed)
RNA 1: CACCCGUGCAAAAUUGCAGGGGUCUAAAACGACCUGAAUAUUUCAGAUCAAA
RNA 2: GGGAAUGGAUCCACAUCUACGAAUUCGUUUUUGAUCUGAAACUAUUCAGGUACUGCAGAUCGGAAGAGCACACGU
B14: target 3 insC 3' of 4,insA 3' of 2 (mixed)
RNA 1: CACCCGUGCAAAAUUGCAGGGGUCUAAAACGACCUGAAUAUUUCAGAUCAAA
RNA 2: GGGAAUGGAUCCACAUCUACGAAUUCGUUUUUGAUCUGAAAUAUUCAGCGUACUGCAGAUCGGAAGAGCACACGU
B15: target 3 insU 3' of 11,insG 3' of 6 (mixed)
RNA 1: CACCCGUGCAAAAUUGCAGGGGUCUAAAACGACCUGAAUAUUUCAGAUCAAA
RNA 2: GGGAAUGGAUCCACAUCUACGAAUUCGUUUUUGAUCUGAAAUUAUUCGAGGUCUGCAGAUCGGAAGAGCACACGU
B16: target 3 A5C,C6G (mixed)
RNA 1: CACCCGUGCAAAAUUGCAGGGGUCUAAAACGACCUGAAUAUUUCAGAUCAAA
RNA 2: GGGAAUGGAUCCACAUCUACGAAUUCGUUUUUGAUCUGAAAUAUUGCGGUCUGCAGAUCGGAAGAGCACACGU
B17: target 3 U2G,U7C (mixed)
RNA 1: CACCCGUGCAAAAUUGCAGGGGUCUAAAACGACCUGAAUAUUUCAGAUCAAA
RNA 2: GGGAAUGGAUCCACAUCUACGAAUUCGUUUUUGAUCUGAAAUAUCCAGGGCUGCAGAUCGGAAGAGCACACGU
B18: target 3 C1A,U8G (mixed)
RNA 1: CACCCGUGCAAAAUUGCAGGGGUCUAAAACGACCUGAAUAUUUCAGAUCAAA
RNA 2: GGGAAUGGAUCCACAUCUACGAAUUCGUUUUUGAUCUGAAAUAGUCAGGUAUGCAGAUCGGAAGAGCACACGU
B19: target 3 C6U,A11G (mixed)
RNA 1: CACCCGUGCAAAAUUGCAGGGGUCUAAAACGACCUGAAUAUUUCAGAUCAAA
RNA 2: GGGAAUGGAUCCACAUCUACGAAUUCGUUUUUGAUCUGAAGUAUUUAGGUCUGCAGAUCGGAAGAGCACACGU
B20: target 3 G4C,U7G (mixed)
RNA 1: CACCCGUGCAAAAUUGCAGGGGUCUAAAACGACCUGAAUAUUUCAGAUCAAA
RNA 2: GGGAAUGGAUCCACAUCUACGAAUUCGUUUUUGAUCUGAAAUAUGCACGUCUGCAGAUCGGAAGAGCACACGU
B21: target 3 insA 3' of 14,insA 3' of 2 (mixed)
RNA 1: CACCCGUGCAAAAUUGCAGGGGUCUAAAACGACCUGAAUAUUUCAGAUCAAA
RNA 2: GGGAAUGGAUCCACAUCUACGAAUUCGUUUUUGAUCUGAAAAUAUUCAGGUACUGCAGAUCGGAAGAGCACACGU
B22: target 3 U8C,U22A (mixed)
RNA 1: CACCCGUGCAAAAUUGCAGGGGUCUAAAACGACCUGAAUAUUUCAGAUCAAA
RNA 2: GGGAAUGGAUCCACAUCUACGAAUUCGUUAUUGAUCUGAAAUACUCAGGUCUGCAGAUCGGAAGAGCACACGU
B23: target 3 U2C,U22A (mixed)
RNA 1: CACCCGUGCAAAAUUGCAGGGGUCUAAAACGACCUGAAUAUUUCAGAUCAAA
RNA 2: GGGAAUGGAUCCACAUCUACGAAUUCGUUAUUGAUCUGAAAUAUUCAGGCCUGCAGAUCGGAAGAGCACACGU
B24: target 3 G4A,U7C (mixed)
RNA 1: CACCCGUGCAAAAUUGCAGGGGUCUAAAACGACCUGAAUAUUUCAGAUCAAA
RNA 2: GGGAAUGGAUCCACAUCUACGAAUUCGUUUUUGAUCUGAAAUAUCCAAGUCUGCAGAUCGGAAGAGCACACGU
B25: target 3 del1,del6 (mixed)
RNA 1: CACCCGUGCAAAAUUGCAGGGGUCUAAAACGACCUGAAUAUUUCAGAUCAAA
RNA 2: GGGAAUGGAUCCACAUCUACGAAUUCGUUUUUGAUCUGAAAUAUUAGGUUGCAGAUCGGAAGAGCACACGU
B26: target 1 G5U,U10C (mixed)
RNA 1: CACCCGUGCAAAAAUGCAGGGGUCUAAAACUGAGCGGAUAACCUCUCUAUGG
RNA 2: GGGAAUGGAUCCACAUCUACGAAUUCGUACCAUAGAGAGGUCAUCCUCUCACCGAGAUCGGAAGAGCACACGU
B27: target 1 insG 3' of 21,insU 3' of 1 (mixed)
RNA 1: CACCCGUGCAAAAAUGCAGGGGUCUAAAACUGAGCGGAUAACCUCUCUAUGG
RNA 2: GGGAAUGGAUCCACAUCUACGAAUUCGUACCGAUAGAGAGGUUAUCCGCUCAUCCGAGAUCGGAAGAGCACACGU
B28: target 1 U11G,A14G (mixed)
RNA 1: CACCCGUGCAAAAAUGCAGGGGUCUAAAACUGAGCGGAUAACCUCUCUAUGG
RNA 2: GGGAAUGGAUCCACAUCUACGAAUUCGUACCAUAGAGGGGGUAUCCGCUCACCGAGAUCGGAAGAGCACACGU

Each binder was assayed against T1, EsCas13d, nuclease-dead (assay: crRNA (strand 1, pre-loaded); Mg2+; 40 mM Tris-HCl pH 7.5, 150 mM NaCl, 6 mM MgCl2, 1 mM DTT, 0.1% Tween-20, 0.2 mg/ml BSA; 25 C; 10 min per concentration, then washed). Conditions: tags: His6-TwinStrep-SUMO cleaved; N-terminal SNAP kept (SNAP-Surface 488); label: 3' end held by stalled T7 RNA polymerase.
Binder B1 has a Kd of 76.5 ± 16 nM.
Work on B2 yielded a Kd of 8.69 ± 0.57 nM.
For B3, the Kd was 71.5 ± 21.5 nM.
B4 showed a Kd of 65 ± 15 nM.
B5 was tested, and the Kd was 55 ± 13 nM.
For B6, the Kd was 73 ± 29.5 nM.
B7 was tested, and the Kd was 54 ± 18 nM.
B8 gave a Kd of 46.5 ± 7 nM.
B9 gave a Kd of 83 ± 9.5 nM.
With B10 the Kd was 73.5 ± 24 nM.
For B11, the Kd was 20.3 ± 2.6 nM.
In the case of B12, the Kd is reported as 49 ± 5 nM.
B13 gave a Kd of 45.5 ± 11.5 nM.
Binder B14 has a Kd of 23.9 ± 3.2 nM.
B15 showed a Kd of 87 ± 14.5 nM.
Binder B16 has a Kd of 53.5 ± 5.5 nM.
With B17 the Kd was 28 ± 4.5 nM.
In the case of B18, the Kd is reported as 74 ± 16 nM.
B19 was tested, and the Kd was 47 ± 10.5 nM.
Binder B20 has a Kd of 44.1 ± 4.1 nM.
Binder B21 has a Kd of 64 ± 10 nM.
B22 gave a Kd of 42.3 ± 4.95 nM.
B23 showed a Kd of 77.5 ± 14 nM.
B24 was tested, and the Kd was 71 ± 12.5 nM.
B25 gave a Kd of ~56 nM.
Work on B26 yielded a Kd of 95 ± 19 nM.
In the case of B27, the Kd is reported as 71 ± 12 nM.
B28 was tested, and the Kd was 22.1 ± 1.3 nM.
